Results as given in patent publication US6596500B1, “Binding of retinoids to M6P/IGF-II receptor” (The General Hospital Corporation, priority 1998, dated 2003).

Target: T1, partially purified rat M6P/IGF-II receptor (Rattus norvegicus, UniProt G3V824)
T1 construct: both intact (300 kDa) and truncated (260 kDa) forms of M6P/IGF-II receptor exist in the serum; from tissue; host or cells: neonatal rat serum, FPLC Sepharose-12 fraction
Test: Equilibrium [3H]RA ligand-binding assay (dextran-charcoal), Scatchard analysis
Conditions: β-glucuronidase 2,500 units/ml
Experimental: Partially purified M6P/IGF-II receptors from neonatal rat serum was prepared using a Fast Protein Liquid Chromatography (FPLC) system equipped with a Sepharose-12 column (Pharmacia). The partially purified M6P/IGF2R protein was diluted in binding buffer (20 mM Tris-HCl, pH 8.0/150 mM NaCl/1mM DTT/protease inhibitors) at a concentration of 50 Ag/ml. […] Incubation was carried out at 22° C. for 2 h in the dark. After the incubation, 0.2 ml chilled charcoal-dextran suspension (charcoal/dextran/glycerol=0.5%/0.05%/20%) was added to remove the unbound ligand.

T1 sequence (G3V824 36-2481): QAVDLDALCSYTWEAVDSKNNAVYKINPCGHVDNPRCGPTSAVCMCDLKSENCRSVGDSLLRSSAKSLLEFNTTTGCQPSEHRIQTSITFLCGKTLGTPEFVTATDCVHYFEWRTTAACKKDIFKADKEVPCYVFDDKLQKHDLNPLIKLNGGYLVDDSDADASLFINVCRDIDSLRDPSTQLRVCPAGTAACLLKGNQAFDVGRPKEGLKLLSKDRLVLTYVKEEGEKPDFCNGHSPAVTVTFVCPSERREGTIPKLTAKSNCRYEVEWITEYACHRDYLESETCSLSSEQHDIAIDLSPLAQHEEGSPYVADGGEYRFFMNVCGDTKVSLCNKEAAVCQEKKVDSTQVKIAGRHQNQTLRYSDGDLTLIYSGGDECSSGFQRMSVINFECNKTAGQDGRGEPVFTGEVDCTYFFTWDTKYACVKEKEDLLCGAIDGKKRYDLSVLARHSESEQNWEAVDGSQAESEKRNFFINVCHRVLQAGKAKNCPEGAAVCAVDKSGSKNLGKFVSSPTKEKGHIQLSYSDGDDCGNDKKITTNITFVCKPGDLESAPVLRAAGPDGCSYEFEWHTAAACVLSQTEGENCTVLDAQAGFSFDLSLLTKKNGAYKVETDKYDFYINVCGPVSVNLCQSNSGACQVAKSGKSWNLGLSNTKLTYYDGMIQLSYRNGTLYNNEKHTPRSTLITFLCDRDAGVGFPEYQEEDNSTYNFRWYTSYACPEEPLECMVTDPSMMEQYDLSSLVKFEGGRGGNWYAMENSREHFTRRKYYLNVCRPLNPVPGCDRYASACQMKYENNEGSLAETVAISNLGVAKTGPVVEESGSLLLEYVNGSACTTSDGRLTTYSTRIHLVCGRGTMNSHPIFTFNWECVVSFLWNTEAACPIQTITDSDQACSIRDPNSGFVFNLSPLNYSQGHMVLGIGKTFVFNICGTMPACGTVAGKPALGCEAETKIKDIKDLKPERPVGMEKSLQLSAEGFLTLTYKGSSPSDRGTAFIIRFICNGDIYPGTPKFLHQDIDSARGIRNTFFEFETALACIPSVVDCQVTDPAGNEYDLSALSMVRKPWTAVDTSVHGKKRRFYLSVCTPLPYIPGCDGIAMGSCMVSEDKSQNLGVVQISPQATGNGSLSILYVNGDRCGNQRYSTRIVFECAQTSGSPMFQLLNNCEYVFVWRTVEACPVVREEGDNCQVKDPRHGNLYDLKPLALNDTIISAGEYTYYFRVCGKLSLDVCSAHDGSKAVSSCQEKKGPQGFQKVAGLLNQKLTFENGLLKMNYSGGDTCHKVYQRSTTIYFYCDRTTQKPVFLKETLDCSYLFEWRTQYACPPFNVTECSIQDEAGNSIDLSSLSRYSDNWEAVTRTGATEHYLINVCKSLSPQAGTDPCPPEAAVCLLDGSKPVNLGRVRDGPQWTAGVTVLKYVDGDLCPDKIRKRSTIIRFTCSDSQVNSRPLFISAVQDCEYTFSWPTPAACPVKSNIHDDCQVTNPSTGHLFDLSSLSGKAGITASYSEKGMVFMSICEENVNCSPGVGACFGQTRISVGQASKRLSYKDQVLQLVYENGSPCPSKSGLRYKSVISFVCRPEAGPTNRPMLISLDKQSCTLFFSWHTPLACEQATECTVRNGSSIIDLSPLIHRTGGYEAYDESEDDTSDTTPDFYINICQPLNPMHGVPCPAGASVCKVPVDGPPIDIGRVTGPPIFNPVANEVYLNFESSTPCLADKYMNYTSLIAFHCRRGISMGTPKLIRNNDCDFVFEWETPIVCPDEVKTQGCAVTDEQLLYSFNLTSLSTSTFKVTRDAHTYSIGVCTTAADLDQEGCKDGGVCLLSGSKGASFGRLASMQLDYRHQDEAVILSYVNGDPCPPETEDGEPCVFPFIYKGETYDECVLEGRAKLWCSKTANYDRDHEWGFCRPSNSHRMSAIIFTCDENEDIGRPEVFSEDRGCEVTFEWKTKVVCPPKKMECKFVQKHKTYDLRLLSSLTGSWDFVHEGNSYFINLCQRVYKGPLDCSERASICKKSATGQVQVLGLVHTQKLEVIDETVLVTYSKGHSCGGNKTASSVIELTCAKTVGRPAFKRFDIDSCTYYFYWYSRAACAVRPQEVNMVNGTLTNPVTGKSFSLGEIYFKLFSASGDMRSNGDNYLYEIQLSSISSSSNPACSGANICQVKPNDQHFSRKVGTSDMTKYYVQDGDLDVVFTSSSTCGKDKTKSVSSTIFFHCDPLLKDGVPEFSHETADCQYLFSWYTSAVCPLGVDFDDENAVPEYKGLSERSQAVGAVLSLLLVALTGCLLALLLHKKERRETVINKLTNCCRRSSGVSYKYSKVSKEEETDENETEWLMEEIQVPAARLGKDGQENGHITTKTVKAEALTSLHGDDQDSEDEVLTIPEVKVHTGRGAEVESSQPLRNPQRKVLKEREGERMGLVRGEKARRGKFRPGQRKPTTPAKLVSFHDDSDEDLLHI

Effect on [3H]RA binding to the receptor: increase [^3H]RA binding
B1: β-glucuronidase: M6P-containing lysosomal enzyme (protein, UniProt P08236 23-651, looked up)
Beta-glucuronidase: LQGGMLYPQESPSRECKELDGLWSFRADFSDNRRRGFEEQWYRRPLWESGPTVDMPVPSSFNDISQDWRLRHFVGWVWYEREVILPERWTQDLRTRVVLRIGSAHSYAIVWVNGVDTLEHEGGYLPFEADISNLVQVGPLPSRLRITIAINNTLTPTTLPPGTIQYLTDTSKYPKGYFVQNTYFDFFNYAGLQRSVLLYTTPTTYIDDITVTTSVEQDSGLVNYQISVKGSNLFKLEVRLLDAENKVVANGTGTQGQLKVPGVSLWWPYLMHERPAYLYSLEVQLTAQTSLGPVSDFYTLPVGIRTVAVTKSQFLINGKPFYFHGVNKHEDADIRGKGFDWPLLVKDFNLLRWLGANAFRTSHYPYAEEVMQMCDRYGIVVIDECPGVGLALPQFFNNVSLHHHMQVMEEVVRRDKNHPAVVMWSVANEPASHLESAGYYLKMVIAHTKSLDPSRPVTFVSNSNYAADKGAPYVDVICLNSYYSWYHDYGHLELIQLQLATQFENWYKKYQKPIIQSEYGAETIAGFHQDPPLMFTEEYQKSLLEQYHLGLDQKRRKYVVGELIWNFADFMTEQSPTRVLGNKKGIFTRQRQPKSAAFLLRERYWKIANETRYPHSVAKSQCLENSLFT
